According to patent US20210380703A1:

What follows are binders tested against human Fc (human) (assay: ELISA; negative control).

Binder	optical density [OD]
376_D11 (antibody, V domains shown) VH: EVQLLESGGGLVQPGGSLRLSCAASGFTFSSYGMNWVRQAPGKGLEWVANINYNGGYTGYADSVKGRFTISRDNSKNTLYLQMNSLRAEDTAVYYCARSANWHDTALDYWGQGTLVTVSS VL: DIQMTQSPSSLSASVGDRVTITCRASQSILSYLNWYQQKPGKAPKLVIYAATSRASGVPSRFSGSGSGTDFTLTISSLQPEDFATYYCQQSYNNPLTFGGGTKVEIK	0.267
376_C02 (antibody, V domains shown) VH: EVQLLESGGGLVQPGGSLRLSCAASGFTFDSYGMNWVRQAPGKGLEWVSGINYNSGYTSYADSVKGRFTISRDNSKNTLYLQMNSLRAEDTAVYYCARSANWHDTALDYWGQGTLVTVSS VL: DIQMTQSPSSLSASVGDRVTITCRASQSIVSYLNWYQQKPGKAPKLVIYAVTSRASGVPSRFSGSGSGTDFTLTISSLQPEDFATYYCQQSYDSPLTFGGGTKVEIK	0.222
376_E08 (antibody, V domains shown) VH: EVQLLESGGGLVQPGGSLRLSCAASGFTFSDYGMNWVRQAPGKGLEWVAGINYNGGYTSYADSVKGRFTISRDNSKNTLYLQMNSLRAEDTAVYYCARSANWHDTALDYWGQGTLVTVSS VL: DIQMTQSPSSLSASVGDRVTITCRASQSIVSYVNWYQQKPGKAPKLVIYAATSRASGVPSRFSGSGSGTDFTLTISSLQPEDFATYYCQQSYDSPLTFGGGTKVEIK	0.332
376_G08 (antibody, V domains shown) VH: EVQLLESGGGLVQPGGSLRLSCAASGFTFDSYGMNWVRQAPGKGLEWVANINYNGGYTSYADSVKGRFTISRDNSKNTLYLQMNSLRAEDTAVYYCARSANWHDTALDYWGQGTLVTVSS VL: DIQMTQSPSSLSASVGDRVTITCRASQSILSYVNWYQQKPGKAPKLVIYAATSRASGVPSRFSGSGSGTDFTLTISSLQPEDFATYYCQQSYDTPLTFGGGTKVEIK	0.22

More lines, now with the values ahead:

optical density [OD]	Binder
0.324	376_C01 (antibody, V domains shown) VH: EVQLLESGGGLVQPGGSLRLSCAASGFTFDSYSMNWVRQAPGKGLEWVAGINYNGGYTSYADSVKGRFTISRDNSKNTLYLQMNSLRAEDTAVYYCARSANWHDTALDYWGQGTLVTVSS VL: DIQMTQSPSSLSASVGDRVTITCRASQSILTYLNWYQQKPGKAPKLLIYAATSLASGVPSRFSGSGSGTDFTLTISSLQPEDFATYYCQQSYDNPLTFGGGTKVEIK
0.215	376_D05 (antibody, V domains shown) VH: EVQLLESGGGLVQPGGSLRLSCAASGFTFSSYSMNWVRQAPGKGLEWVSNINYNGGYKGYADSVKGRFTISRDNSKNTLYLQMNSLRAEDTAVYYCARSANWHDTALDYWGQGTLVTVSS VL: DIQMTQSPSSLSASVGDRVTITCRASQSIVSYVNWYQQKPGKAPKLLIYAATSLASGVPSRFSGSGSGTDFTLTISSLQPEDFATYYCQQSYDTPLTFGGGTKVEIK
0.234	376_E03 (antibody, V domains shown) VH: EVQLLESGGGLVQPGGSLRLSCAASGFTFSSYGMNWVRQAPGKGLEWVANINYNGGYTGYADSVKGRFTISRDNSKNTLYLQMNSLRAEDTAVYYCARSANWHDTALDYWGQGTLVTVSS VL: DIQMTQSPSSLSASVGDRVTITCRASQSILSYVNWYQQKPGKAPKLVIYAATSLASGVPSRFSGSGSGTDFTLTISSLQPEDFATYYCQQSYDLPLTFGGGTKVEIK
0.438	376_C12 (antibody, V domains shown) VH: EVQLLESGGGLVQPGGSLRLSCAASGFTFSSYSMNWVRQAPGKGLEWVAGINYNGGYTGYADSVKGRFTISRDNSKNTLYLQMNSLRAEDTAVYYCARSANWHDTALDYWGQGTLVTVSS VL: DIQMTQSPSSLSASVGDRVTITCRASQSILTYVNWYQQKPGKAPKLLIYAATSRASGVPSRFSGSGSGTDFTLTISSLQPEDFATYYCQQSYDSPLTFGGGTKVEIK
